These results are taken from patent US20140017235A1.

The assay addresses human NGF (human), P01138. Description: cell-based or functional assay.

Sequence of human NGF (human), P01138 (P01138 122-241 limits assumed): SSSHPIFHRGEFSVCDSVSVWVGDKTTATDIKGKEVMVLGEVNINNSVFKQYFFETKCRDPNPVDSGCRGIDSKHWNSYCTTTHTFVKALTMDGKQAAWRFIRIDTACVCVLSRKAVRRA

B1: antibody E3 (full antibody) (antibody, human IgG2, kappa)
heavy: QVQLQESGPGLVKPSETLSLTCTVSGFSLIGYDLNWIRQPPGKGLEWIGIIWGDGTTDYNSAVKSRVTISKDTSKNQFSLKLSSVTAADTAVYYCARGGYWYATSYYFDYWGQGTLVTVSSASTKGPSVFPLAPCSRSTSESTAALGCLVKDYFPEPVTVSWNSGALTSGVHTFPAVLQSSGLYSLSSVVTVPSSNFGTQTYTCNVDHKPSNTKVDKTVERKCCVECPPCPAPPVAGPSVFLFPPKPKDTLMISRTPEVTCVVVDVSHEDPEVQFNWYVDGVEVHNAKTKPREEQFNSTFRVVSVLTVVHQDWLNGKEYKCKVSNKGLPSSIEKTISKTKGQPREPQVYTLPPSREEMTKNQVSLTCLVKGFYPSDIAVEWESNGQPENNYKTTPPMLDSDGSFFLYSKLTVDKSRWQQGNVFSCSVMHEALHNHYTQKSLSLSPGK
light: not shown
modifications: not checked
B1: the antibody concentration that totally blocked NGF-elicited survival of trigeminal neurons stood at 20 nM.
